The data set deals with T1, CrgA (Pseudomonas aeruginosa SJTD-1, UniProt Q9I4D7 1-304).
T1 sequence: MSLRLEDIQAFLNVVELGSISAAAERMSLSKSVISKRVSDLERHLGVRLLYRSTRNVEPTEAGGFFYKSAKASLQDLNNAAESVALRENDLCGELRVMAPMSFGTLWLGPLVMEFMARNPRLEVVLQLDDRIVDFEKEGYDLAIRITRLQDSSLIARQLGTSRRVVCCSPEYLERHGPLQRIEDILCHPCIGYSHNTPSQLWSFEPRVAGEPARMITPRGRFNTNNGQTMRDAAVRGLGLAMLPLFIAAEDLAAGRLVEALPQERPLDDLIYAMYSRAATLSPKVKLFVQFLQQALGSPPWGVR
The data set can be described thus: EMSA; EMSA: 20 mM Tris-HCl, 50 mM NaCl, 1 mM DTT, 0.1 mM EDTA, pH 7.5, 37 C 30 min, 4 pmol DNA in 20 uL, 8% native PAGE; footprinting at 25 C. The conditions noted are these: protein: recombinant; tags: His-tag (pET28a, Ni-NTA; NdeI/BamHI cloning, N-terminal tag likely); chain copies: 4; label: 5'-FAM on strand 2; blunt. (Mobility shift assays separate free from complexed probe on a gel.)

B1: alkB2-b1 (dsDNA)
DNA 1: AGGACAATTGTCAGACAATCTAACAGGGATGGGGCAGGCCGGCCAAGGGAGATAAATACGAGGACTTCCC
DNA 2: GGGAAGTCCTCGTATTTATCTCCCTTGGCCGGCCTGCCCCATCCCTGTTAGATTGTCTGACAATTGTCCT
On to B1, for which the binding result is “binds”.

B2: alkB2-U46 (dsDNA)
DNA 1: AGGACAATTGTCAGACAATCTAACAAGATAAATACGAGGACTTCCC
DNA 2: GGGAAGTCCTCGTATTTATCTTGTTAGATTGTCTGACAATTGTCCT
As to B2, the binding result is recorded as “no binding”.

B3: alkB2-b2 (dsDNA)
DNA 1: AGGACAATTGTCAGACAATCTAACAAGCGGCGGACAGAACGAAGATAAATACGAGGACTTCCC
DNA 2: GGGAAGTCCTCGTATTTATCTTCGTTCTGTCCGCCGCTTGTTAGATTGTCTGACAATTGTCCT
As for B3, the binding result is on record as “binds”.

The values above are taken from PMC6422896, “CrgA Protein Represses AlkB2 Monooxygenase and Regulates the Degradation of Medium-to-Long-Chain n-Alkanes in Pseudomonas aeruginosa SJTD-1” (Frontiers in Microbiology, 2019).
